Target: prefusion SARS-CoV-2 Omicron BA.1 S ectodomain trimer (SARS-CoV-2 Omicron BA.1)
Assay: cryo-EM structure

prefusion SARS-CoV-2 Omicron BA.1 S ectodomain trimer (domain or fragment)
stoichiometry N: 3

Source: publication PMC12945441
